Test results published in patent US20220009986A1 (AMBRX, published 2022).
“And” between values parts separate entries of the source, which are not always exact repeats. Equal values may be shown once. Read-outs that look alike come from different tables or passages of the source.

T1: endogenous IL-10 receptors of MC/9 cells (mouse mast cell line) (mouse, UniProt Q61727 17-575)
T1 sequence (looked up): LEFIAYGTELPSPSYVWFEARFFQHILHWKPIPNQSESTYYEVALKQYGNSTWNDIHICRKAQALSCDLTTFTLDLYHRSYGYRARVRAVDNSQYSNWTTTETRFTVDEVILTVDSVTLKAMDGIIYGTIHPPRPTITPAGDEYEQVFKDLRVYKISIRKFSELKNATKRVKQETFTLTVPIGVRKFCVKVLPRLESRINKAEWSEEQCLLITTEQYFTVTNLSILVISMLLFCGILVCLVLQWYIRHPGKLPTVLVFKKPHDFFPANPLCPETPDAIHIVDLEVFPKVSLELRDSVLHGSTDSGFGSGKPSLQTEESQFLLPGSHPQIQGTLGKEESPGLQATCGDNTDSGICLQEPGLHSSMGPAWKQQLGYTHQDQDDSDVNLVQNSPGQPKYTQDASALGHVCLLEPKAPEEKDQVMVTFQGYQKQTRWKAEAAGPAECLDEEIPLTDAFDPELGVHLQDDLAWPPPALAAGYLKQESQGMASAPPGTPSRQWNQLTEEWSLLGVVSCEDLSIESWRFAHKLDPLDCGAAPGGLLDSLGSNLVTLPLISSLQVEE

B1: IL-10 wild type (mature wild type human IL-10) (ligand)
chain: SPGQGTQSENSCTHFPGNLPNMLRDLRDAFSRVKTFFQMKDQLDNLLLKESLLEDFKGYLGCQALSEMIQFYLEEVMPQAENQDPDIKAHVNSLGENLKTLRLRLRRCHRFLPCENKSKAVEQVKNAFNKLQEKGIYKAMSEFDIFINYIEAYMTMKIRN
B2: 5K PEG-hIL-10 wt (ligand)
chain: B1 chain
modifications: N-terminal PEGylation with 5K PEG
B3: 10K PEG-hIL-10 wt (ligand)
chain: B1 chain
modifications: N-terminal PEGylation with 10K PEG

Key:
Assay in all cases: cell-based or functional assay
[1] = target: T1, endogenous IL-10 receptors of MC/9 …
[2] = target: T1, endogenous IL-10 receptors of MC/9 …; remark: listed apart in the source
[3] = target: T1, endogenous IL-10 receptors of MC/9 …; remark: listed apart in the source
[4] = target: T1, endogenous IL-10 receptors of MC/9 …; remark: listed apart in the source

Row | Binder | EC50 (ng/ml), MC/9 proliferation assay [1] [ng/mL] | EC50 (ng/ml), MC/9 proliferation assay [2] | EC50 (ng/ml), MC/9 proliferation assay [3] [ng/mL] | EC50 (ng/ml), MC/9 proliferation assay [4] [ng/mL]
1 | B1 | 0.14 | 0.303 ng/mL and 0.105 ng/mL | 1 | 0.42
2 | B2 | 4.76 | – | – | –
3 | B3 | 21.8 | – | – | –
